How the values were obtained:
[1] = biological target: T1, human claudin 18 splice variant 2 (CLDN18.2) (human); assay: flow cytometry (Table 6); APC-conjugated secondary antibody; binding assay 1
T1 construct: also called claudin 18 isotype 2
Description: (§1) 100 μl of the cell suspension per well (correspond to 2×10⁵ cells/well) were transferred to a round bottom 96-well microtiter plate. […] The cells were centrifuged for 1 min at 1500 rpm and the supernatant was discarded. […] After incubation, 100 μl FACS buffer were added to each sample, the cells were centrifuged for 1 min at 1500 rpm and the supernatant was discarded. The washing step with FACS buffer was repeated twice. Finally, the cells were resuspended in 100 μl FACS buffer and binding was determined using a BD FACS Array Bioanalyzer.
Antibodies marked with the same number (1 or 2) were tested in the same binding assay.

[2] = biological target: T1, human claudin 18 splice variant 2 …; assay: flow cytometry (Table 6); APC-conjugated secondary antibody; binding assay 1; normalized to IMAB362
Description: as §1

[3] = biological target: human claudin 18 splice variant 1 (CLDN18.1) (human, UniProt P56856 1-261); assay: flow cytometry, HEK293 cells stably expressing CLDN18.1 (column 'CLDN18.1 reactive')
[4] = biological target: T1, human claudin 18 splice variant 2 …; assay: flow cytometry, HEK293 cells stably expressing CLDN18.2; APC-conjugated secondary antibody; binding assay 3
Description: as §1

[5] = biological target: T1, human claudin 18 splice variant 2 …; assay: flow cytometry, HEK293 cells stably expressing CLDN18.2; APC-conjugated secondary antibody; binding assay 3; normalized to IMAB362
Description: as §1

[6] = biological target: T1, human claudin 18 splice variant 2 …; assay: cell-based or functional assay
[7] = biological target: T1, human claudin 18 splice variant 2 …; assay: flow cytometry (Table 6); ProteinL-FITC detection
Description: as §1

[8] = biological target: T1, human claudin 18 splice variant 2 …; assay: flow cytometry (Table 6); ProteinL-FITC detection; normalized to IMAB362
Description: as §1

[9] = biological target: T1, human claudin 18 splice variant 2 …; assay: flow cytometry, HEK293 cells stably expressing CLDN18.2; ProteinL-FITC detection; binding assay 4
[10] = biological target: T1, human claudin 18 splice variant 2 …; assay: flow cytometry, HEK293 cells stably expressing CLDN18.2; ProteinL-FITC detection; binding assay 4; normalized to IMAB362
Description: as §1

| Binder | EC50 [1] | Max. binding [MFI] [1] | EC50 normalized [%] [2] | Max. binding normalized [%] [2] | binding result [3] | EC50 [4] | Max. binding [MFI] [4] | EC50 normalized [%] [5] | Max. binding normalized [%] [5] | Cell viability EC50 [%] normalized to IMAB362, Fab-ZAP endocytosis assay [6] | Cell viability EC50 [ng/ml], Fab-ZAP endocytosis assay on HEK293~CLDN18.2 cells [6] | Max. viability reduction normalized [%], Fab-ZAP endocytosis assay [6] | EC50 [7] | EC50 normalized [%] [8] | EC50 [9] | Max. binding [MFI] [9] | EC50 normalized [%] [10] | Max. binding normalized [%] [10] |
| --- | --- | --- | --- | --- | --- | --- | --- | --- | --- | --- | --- | --- | --- | --- | --- | --- | --- | --- |
| chim mAB279 (antibody, V domains shown) VH: QVQLQQSGAELARPGASVKLSCKASGYTFTDYYINWVKQRTGQGLEWIGEIYPGSGNTYYNEKFKGKATLTADKSSSTAYMQLSSLTSEDSAVYFCARSYGAFDYWGQGTTLTVSS VL: DIVMTQSQKFMSTSVGDRVSITCKASQNVRTAVAWYQQKPGQSPKALIYLASNRHTGVPDRFTGSGSGTDFTLTISNVQSEDLADYFCLQHWNYPLTFGGGTKLEIKR | 60 µg/mL | 4390 MFI | 10300% | 24% | – | – | – | – | – | – | – | – | – | – | – | – | – | – |
| mu mAB279 (antibody, mouse IgG2a, V domains shown, mouse IgG2a kappa) VH: QVQLQQSGAELARPGASVKLSCKASGYTFTDYYINWVKQRTGQGLEWIGEIYPGSGNTYYNEKFKGKATLTADKSSSTAYMQLSSLTSEDSAVYFCARSYGAFDYWGQGTTLTVSS VL: DIVMTQSQKFMSTSVGDRVSITCKASQNVRTAVAWYQQKPGQSPKALIYLASNRHTGVPDRFTGSGSGTDFTLTISNVQSEDLADYFCLQHWNYPLTFGGGTKLEIK | – | – | – | – | no binding | 0.027 µg/mL | 118 MFI | 4% | 1% | – | – | – | – | – | – | – | – | – |
| chim mAB308 (antibody, V domains shown) VH: QVQLQQSGPELVKPGASVKMSCKASGYTFTDYVISWVKQRTGQGLEWIGEIYPGSGSTYYNEKFKGKATLTADKSSNTAYMQLSSLTSEDSAVYFCARGVLLRAMDYWGQGTSVTVSS VL: DIVMSQSPSSLAVSAGEKVTMSCKSSQSLLNSRTRKNYLAWYQQKPGQSPKLLIYWASTRESGVPDRFTGSGSGTDFTLTISSVQAEDLAVYYCKQSYNLYTFGGGTKLEIKR | 18.9 µg/mL | 15000 MFI | 3240% | 81% | – | – | – | – | – | – | – | – | – | – | – | – | – | – |
| mu mAB362 (mouse IgG1) (antibody, V domains shown, also called mu muAB362 (IgG1)) VH: QVQLQQPGAELVRPGASVKLSCKASGYTFTSYWINWVKQRPGQGLEWIGNIYPSDSYTNYNQKFKDKATLTVDKSSSTAYMQLSSPTSEDSAVYYCTRSWRGNSFDYWGQGTTLTVSS VL: DIVMTQSPSSLTVTAGEKVTMSCKSSQSLLNSGNQKNYLTWYQQKPGQPPKLLIYWASTRESGVPDRFTGSGSGTDFTLTISSVQAEDLAVYYCQNDYSYPFTFGSGTKLEIK | – | – | – | – | – | 2.24 µg/mL | 8830 MFI | 343% | 111% | 17% | 2.2 ng/mL | 66% | 0.654 µg/mL | 53% | 4.29 µg/mL | 5910 MFI | 345% | 111% |
| mu mAB362 (mouse IgG2a) (antibody, V domains shown, Mouse IgG2a form of mu mAB362; also called mu muAB362 (IgG2a)) VH: QVQLQQPGAELVRPGASVKLSCKASGYTFTSYWINWVKQRPGQGLEWIGNIYPSDSYTNYNQKFKDKATLTVDKSSSTAYMQLSSPTSEDSAVYYCTRSWRGNSFDYWGQGTTLTVSS VL: DIVMTQSPSSLTVTAGEKVTMSCKSSQSLLNSGNQKNYLTWYQQKPGQPPKLLIYWASTRESGVPDRFTGSGSGTDFTLTISSVQAEDLAVYYCQNDYSYPFTFGSGTKLEIK | – | – | – | – | – | – | – | – | – | 231% | ~30 ng/mL | 66% | 4.29 µg/mL | 345% | 0.654 µg/mL | 4880 MFI | 53% | – |
